The test system of this assay is TS-exposed mice (C57BL/6J), pulmonary inflammation. Nature of the assay: Tobacco smoke model, cells recovered in bronchoalveolar lavage. It counts as in vivo, mouse. How it is done: The response consisted of significant increases in the numbers of macrophages, epithelial cells, neutrophils and lymphocytes recovered in BAL.
Vehicle (PBS), MOR12743 and MOR03207 were administered i.p., 1 h prior to TS-exposure on days 1, 4, 7 and 10 of the study. Roflumilast was administered p.o., 1 h prior to each TS-exposure.
In this exposure protocol, mice were exposed in groups of 5 in clear polycarbonate chambers (27 cm×16 cm×12 cm). The TS from ‘Marlboro 100’ cigarettes was allowed to enter the exposure chambers at a flow rate of 100 mL/min. In order to minimise any potential problems caused by repeated exposure to a high level of TS, the exposure period to TS was increased initially from 25 minutes at the start of the study (day 1) to a maximum of 45 minutes on day 3. The exposure schedule used in this study was as follows:
The trachea was cannulated using a 10 mm long Luer fitting stainless steel cannula. Phosphate buffered saline (PBS) was used as the lavage fluid. A volume of 0.4 mL was gently instilled and withdrawn 3 times using a 1 mL syringe and then placed in an Eppendorf tube and kept on ice prior to subsequent determinations.
Lavage fluid was separated from cells by centrifugation (6 min at 3400 rpm, RCF=3070×g—‘Eppendorf Mini Spin’) and the supernatant decanted and frozen for possible subsequent analysis. The cell pellet was re-suspended in a known volume of PBS and total cell numbers calculated by counting a stained (Turks stain) aliquot under a microscope using a haemocytometer.
The residual cell pellet was diluted to approximately 10^5 cells per mL. A volume of 500 μl was placed in the funnel of a cytospin slide and centrifuged for 8 min at 800 rpm, RCF=72.26×g (Shandon Cytospin 3). The slide was air-dried and stained using Wrights/Giemsa stain as per the proprietary instructions. When dried and cover-slipped, differential cell-counts were performed using light microscopy. Approximately 400 cells were counted for each slide. Cells were identified using standard morphometric techniques.
In this study, 4 groups of mice were subjected to daily TS-exposure for 11 days and were sacrificed on the 12th day, 24 h after the final TS-exposure. Three groups received either vehicle (D-PBS), MOR12743 or MOR03207, i.p., 1 h prior to TS-exposure on days 1, 4, 7 and 10 of the study. One group received Roflumilast, p.o., 1 h prior to each TS-exposure. A further group was exposed to air for 11 consecutive days and sacrificed on the 12th day, 24 h after the final air-exposure. This group received vehicle (D-PBS), i.p., 1 h prior to exposure on days 1, 4, 7 and 10 of the study. For all groups n=10.
All mice were killed on day 12, by intra-peritoneal barbiturate anaesthetic overdose, 24 h after final exposure to air or TS. A blood sample was taken over heparin from the sub-clavian vein and the plasma separated by centrifugation and stored at −40° C. A BAL was performed using 0.4 mL of phosphate buffered saline (PBS). Cells recovered from the BAL were used for the total cell and differential cell counts. The BAL supernatants and remaining cell pellet were stored at −40° C. and −80° C. respectively for possible future analysis. Following BAL, the cannula was left tied in place. The heart and lungs were removed after gently opening the thorax and cutting down either side of the sternum and ribs. The left lobe was tied off, removed, snap-frozen and stored at −80° C. The right lobe was inflated with 10% phosphate buffered formalin (PBF) to a pressure of 18 cm of PBF for 20 minutes. The trachea was then ligated below the cannula and the cannula removed. The heart, lung & trachea were immersed in PBF.
The data were therefore initially subjected to a one-way analysis of variance test (ANOVA), followed by a Bonferroni correction for multiple comparisons in order to test for statistically significant differences between treatment groups. A “p” value of <0.05 was considered to be statistically significant. […]

Where [1] appears, read: 5 mg/kg i.p. on days 1, 4, 7 & 10.

Results on 1 molecule are retold here after patent US10815297B2, “Antagonists of IL17C for the treatment of inflammatory disorders” (MorphoSys AG, priority 2011, dated 2020).

B1: MOR12743: anti-mouse IL17C HuCAL antibody; CDRs SEQ ID NO: 31-36, VL 37, VH 38; human/mouse chimeric IgG2a (antibody, V domains shown)
VH: QVQLVQSGAEVKKPGASVKVSCKASGYTFTSNFIHWVRQAPGQGLEWMGWISPYNGDTNYAQKFQGRVTMTRDTSISTAYMELSRLRSEDTAVYYCARESVYYGSDYGYNGMDIWGQGTLVTVSS
VL: DIELTQPPSVSVSPGQTASITCSGDNLGEEYVSWYQQKPGQAPVLVIYDDTKRPSGIPERFSGSNSGNTATLTISGTQAEDEADYYCASWDLWSVEVFGGGTKLTVLGQ
modifications: mouse IgG2a constant regions; VH; VL
For B1, under setting [1], the “Inhibition of epithelial cells in BAL” value was found to be 52%, the “Inhibition of lymphocytes in BAL” value came out at 24%, the “Inhibition of macrophages in BAL” value stood at 6% and the “Inhibition of neutrophils in BAL” value was determined as 48%. Further, for the setting “5 mg/kg i.p. on days 1, 4, 7 & 10, 1 h prior to TS-exposure, BAL 24 h after last of 11 daily exposures”, the “Inhibition of total cells in BAL” value was 26%.
